Series [1] concerns HeLa Kyoto. The experiment in a line: solubility change mitosis vs G1/S (difference of NP-40 vs SDS log2 ratios) (log2 ratio difference); higher = more soluble in mitosis.
Series [2] deals with HeLa Kyoto. The experiment in a line: solubility in G1/S (NP-40 vs SDS abundance) (log2 ratio); higher = more soluble. To be noted: cell cycle stage: G1/S.
Series [3] deals with HeLa Kyoto. The series can be described thus: thermal stability score vs G1/S (z-score of summed log2 fold changes over temperatures); higher = more thermally stable than in G1/S.
For series [4], the system named is HeLa Kyoto. The experiment in a line: melting temperature (median over replicates), in situ; higher = more thermally stable.
Setting [5] is: cell cycle stage: early G1 (4.5 h after nocodazole release).
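Wherever melting temperature (median over replicates), in situ is given: HeLa Kyoto cells synchronized by double thymidine or nocodazole block, proteins quantified by TMT10plex mass spectrometry, three independent biological replicates.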
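Wherever solubility change mitosis vs G1/S (difference of NP-40 vs SDS log2 ratios) is given: synchronized HeLa Kyoto cells (double thymidine block for G1/S, nocodazole release for mitosis), protein amounts in NP-40 versus SDS lysates quantified by mass spectrometry, three biological replicates.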
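Wherever solubility in G1/S (NP-40 vs SDS abundance) is given: HeLa Kyoto cells arrested at G1/S by double thymidine block, proteins quantified by TMT10plex mass spectrometry in mild NP-40 versus SDS extracts, three biological replicates.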
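Wherever thermal stability score vs G1/S (z-score of summed log2 fold changes over temperatures) is given: synchronized HeLa Kyoto cells, proteins quantified by TMT10plex mass spectrometry, three biological replicates, mitosis taken 0.5 h after nocodazole release, G1/S directly after double thymidine block.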

For “MDDREDLVYQAKLAEQAERYDEMVESMKKVAGMDVELTVEERNLLSVAYKNVIGARRASWRIISSIEQKEENKGGEDKLKMIREYRQMVETELKLICCDILDVLDKHLIPAANTGESKVFYYKMKGDYHRYLAEFATGNDRKEAAENSLVAYKAASDIAMTELPPTHPIRLGLALNFSVFYYEILNSPDRACRLAKAAFDDAIAELDTLSEESYKDSTLIMQLLRDNLTLWTSDMQGDGEEQNKEALQDVEDENQ [YWHAE]”, the “solubility change mitosis (log2)” value in the series on HeLa Kyoto [1] turned out to be 0.181. Besides, the “solubility in G1/S (log2)” value in the series on HeLa Kyoto [2] was 0.336. Also, the thermal stability score is -1.18 in the series with HeLa Kyoto [3] (setting [5]) and -2.71 in the series on HeLa Kyoto [3] (cell cycle stage: mitosis). Moreover, the results for the melting temperature in the series on HeLa Kyoto [4] (cell cycle stage: G1/S) and in the series with HeLa Kyoto [4] (cell cycle stage: mitosis) were 55.3 °C and 55.8 °C, respectively.

Regarding “MDEAGSSASGGGFRPGVDSLDEPPNSRIFLVISKYTPESVLRERFSPFGDIQDIWVVRDKHTKESKGIAFVKFARSSQACRAMEEMHGQCLGPNDTKPIKVFIAQSRSSGSHRDVEDEELTRIFVMIPKSYTEEDLREKFKVYGDIEYCSIIKNKVTGESKGLGYVRYLKPSQAAQAIENCDRSFRAILAEPKNKASESSEQDYYSNMRQEALGHEPRVNMFPFVGEQQSEFSSFDKNDSRGQEAISKRLSVVSRVPFTEEQLFSIFDIVPGLEYCEVQRDPYSNYGHGVVQYFNVASAIYAKYKLHGFQYPPGNRIGVSFIDDGSNATDLLRKMATQMVAAQLASMVWNNPSQQQFMQFGGSSGSQLPQIQTDVVLPSCKKKAPAETPVKERLFIVFNPHPLPLDVLEDIFCRFGNLIEVYLVSGKNVGYAKYADRISANDAIATLHGKILNGVRLKVMLADSPREESNKRQRTY [RBM45]”, the “solubility change mitosis (log2)” value with HeLa Kyoto [1] is 0.448. Besides, in the series with HeLa Kyoto [2], the “solubility in G1/S (log2)” value is 0.000113. The results for the thermal stability score in the series with HeLa Kyoto [3] (setting [5]) and with HeLa Kyoto [3] (cell cycle stage: mitosis) were 0.337 and 0.251, respectively. The figures for the melting temperature with HeLa Kyoto [4] (cell cycle stage: G1/S) and with HeLa Kyoto [4] (cell cycle stage: mitosis) were 48.4 °C and 50 °C, respectively.

In the case of “MDELAGGGGGGPGMAAPPRQQQGPGGNLGLSPGGNGAAGGGGPPASEGAGPAAGPELSRPQQYTIPGILHYIQHEWARFEMERAHWEVERAELQARIAFLQGERKGQENLKKDLVRRIKMLEYALKQERAKYHKLKYGTELNQGDLKMPTFESEETKDTEAPTAPQNSQLTWKQGRQLLRQYLQEVGYTDTILDVRSQRVRSLLGLSNSEPNGSVETKNLEQILNGGESPKQKGQEIKRSSGDVLETFNFLENADDSDEDEENDMIEGIPEGKDKHRMNKHKIGNEGLAADLTDDPDTEEALKEFDFLVTAEDGEGAGEARSSGDGTEWDKDDLSPTAEVWDVDQGLISKLKEQYKKERKGKKGVKRANRTKLYDMIADLGDDELPHIPSGIINQSRSASTRMTDHEGARAEEAEPITFPSGGGKSFIMGSDDVLLSVLGLGDLADLTVTNDADYSYDLPANKDAFRKTWNPKYTLRSHFDGVRALAFHPVEPVLVTASEDHTLKLWNLQKTVPAKKSASLDVEPIYTFRAHIGPVLSLAISSNGEQCFSGGIDATIQWWNMPSPSVDPYDTYEPNVLAGTLVGHTDAVWGLAYSGIKNQLLSCSADGTVRLWNPQEKLPCICTYNGDKKHGIPTSVDFIGCDPAHMVTSFNTGSAVIYDLETSQSLVILSSQVDSGLQSNNHINRVVSHPTLPVTITAHEDRHIKFFDNKTGKMIHSMVAHLDAVTSLAVDPNGIYLMSGSHDCSIRLWNLDSKTCVQEITAHRKKLDESIYDVAFHSSKAYIASAGADALAKVFV [STRN3]”, in the series with HeLa Kyoto [1], the “solubility change mitosis (log2)” value is -0.0757. Also, the “solubility in G1/S (log2)” value in the series on HeLa Kyoto [2] was -0.0799. For the same sequence, the thermal stability score is -0.00707 in the series on HeLa Kyoto [3] (setting [5]) and -0.722 in the series with HeLa Kyoto [3] (cell cycle stage: mitosis). In addition, the values for the melting temperature in the series on HeLa Kyoto [4] (cell cycle stage: G1/S) and in the series with HeLa Kyoto [4] (cell cycle stage: mitosis) were 52.1 °C and 52.4 °C, respectively.

Turning to “MDEQAGPGVFFSNNHPGAGGAKGLGPLAEAAAAGDGAAAAGAARAQYSLPGILHFLQHEWARFEVERAQWEVERAELQAQIAFLQGERKGQENLKKDLVRRIKMLEYALKQERAKYHKLKYGTELNQGDMKPPSYDSDEGNETEVQPQQNSQLMWKQGRQLLRQYLQEVGYTDTILDVKSKRVRALLGFSSDVTDREDDKNQDSVVNGTEAEVKETAMIAKSELTDSASVLDNFKFLESAAADFSDEDEDDDVDGREKSVIDTSTIVRKKALPDSGEDRDTKEALKEFDFLVTSEEGDNESRSAGDGTDWEKEDQCLMPEAWNVDQGVITKLKEQYKKERKGKKGVKRPNRSKLQDMLANLRDVDELPSLQPSVGSPSRPSSSRLPEHEINRADEVEALTFPPSSGKSFIMGADEALESELGLGELAGLTVANEADSLTYDIANNKDALRKTWNPKFTLRSHFDGIRALAFHPIEPVLITASEDHTLKMWNLQKTAPAKKSTSLDVEPIYTFRAHKGPVLCVVMSSNGEQCYSGGTDGLIQGWNTTNPNIDPYDSYDPSVLRGPLLGHTDAVWGLAYSAAHQRLLSCSADGTLRLWNTTEVAPALSVFNDTKELGIPASVDLVSSDPSHMVASFSKGYTSIFNMETQQRILTLESNVDTTANSSCQINRVISHPTLPISITAHEDRHIKFYDNNTGKLIHSMVAHLEAVTSLAVDPNGLYLMSGSHDCSIRLWNLESKTCIQEFTAHRKKFEESIHDVAFHPSKCYIASAGADALAKVFV [STRN]”, in the series with HeLa Kyoto [1], the “solubility change mitosis (log2)” value was -0.134. For the same sequence, in the series on HeLa Kyoto [2], the “solubility in G1/S (log2)” value came to 0.0488. Further, the thermal stability score in the series on HeLa Kyoto [3] (setting [5]) was 0.0936; in the series with HeLa Kyoto [3] (cell cycle stage: mitosis), -0.463. Moreover, the melting temperature in the series with HeLa Kyoto [4] (cell cycle stage: G1/S) turned out to be 52.4 °C; with HeLa Kyoto [4] (cell cycle stage: mitosis), 52.3 °C.

In the case of “MDGKQGGMDGSKPAGPRDFPGIRLLSNPLMGDAVSDWSPMHEAAIHGHQLSLRNLISQGWAVNIITADHVSPLHEACLGGHLSCVKILLKHGAQVNGVTADWHTPLFNACVSGSWDCVNLLLQHGASVQPESDLASPIHEAARRGHVECVNSLIAYGGNIDHKISHLGTPLYLACENQQRACVKKLLESGADVNQGKGQDSPLHAVARTASEELACLLMDFGADTQAKNAEGKRPVELVPPESPLAQLFLEREGPPSLMQLCRLRIRKCFGIQQHHKITKLVLPEDLKQFLLHL [ASB9]”, the “solubility change mitosis (log2)” value with HeLa Kyoto [1] is -0.182. For the same sequence, the “solubility in G1/S (log2)” value with HeLa Kyoto [2] worked out at 0.762. The results for the thermal stability score in the series with HeLa Kyoto [3] (setting [5]) and in the series on HeLa Kyoto [3] (cell cycle stage: mitosis) were -0.645 and -1.33, respectively. The melting temperature in the series with HeLa Kyoto [4] (cell cycle stage: G1/S) worked out at 55 °C; in the series with HeLa Kyoto [4] (cell cycle stage: mitosis) it was 54.2 °C.

The record behind these values is the supplement of paper PMC5998384.
